Results published in PMC2818180.

Biological target: Affinity peptide KRTGQYKL immobilised in PEG hydrogel
Test: absorption of bFGF into peptide-functionalized hydrogels

bFGF absorbed in gel at 4.4 µM monovalent peptide: 27.3 ng/mg-gel
Substance: Recombinant human bFGF (from UniProt P09038 143-288) (ligand)
